For assay [1], the target named is T1, Superfolder-GFP-tagged M-HBsAg (serotype ayw, genotype D3) (Hepatitis B virus genotype D3, serotype …, UniProt P03138).
T1 construct: source: FreeStyle 293F cells, BacMam virus; purified (ELISA); membranes solubilised with 1% LMNG and 0.1% CHS, supernatant (pull-down); not shown: superfolder GFP, N-terminal, kept
Kind of assay: pull-down. The following applies: one partner purified.

In assay [2] the target is T1, Superfolder-GFP-tagged M-HBsAg …. Kind of assay: ELISA. Particulars: both partners purified. On the technique in general: An ELISA detects its analyte on a solid surface through an enzyme-linked reagent.

B1: strep-tagged Fab_(GC1102) (Fab, V domains shown)
VH: EVQLVESGGGLVKPGGSLRLSCSASGFSLTKYKMTWVRQAPGKGLEWVSSISSTSRDIDYADSVKGRFTISRDNAKNSLFLQMSSLRVDDTAVYYCTRDGWLWGWDVRSNYYYNALDVWGQGTTVTVSS
VL: DIVVTQSPSSLSASVGDRVTITCRASQGIYNSIAWYQQKPGKAPKLLLYSTSTLLSGVPSRFSGSGSGTDYTLTITNLQPEDFATYYCQQYFVTPETFGQGTKLEIK
notes: also called strep-HA-tagged NAb_(GC1102); Fab_(GC1102) bait
B1: the binding result in assay [1] is on record as “binds”.

B2: Myc-tagged Fab_(GC1102) (Fab, V domains shown)
VH: EVQLVESGGGLVKPGGSLRLSCSASGFSLTKYKMTWVRQAPGKGLEWVSSISSTSRDIDYADSVKGRFTISRDNAKNSLFLQMSSLRVDDTAVYYCTRDGWLWGWDVRSNYYYNALDVWGQGTTVTVSS
VL: DIVVTQSPSSLSASVGDRVTITCRASQGIYNSIAWYQQKPGKAPKLLLYSTSTLLSGVPSRFSGSGSGTDYTLTITNLQPEDFATYYCQQYFVTPETFGQGTKLEIK
notes: also called NAb_(GC1102); GC1102 prey
As to B2, in assay [1], the binding result is given as “binds”.

B3: strep-tagged Fab_(H006) (Fab, V domains shown)
VH: QMRLVESGGGVVRPGGSLRLSCAGSGFRFTGYGIHWVRQAPGKGLEWLAYISNDGSKKYHTDSVKGRFTVSRDNAKNTAYLQMNSLRVEETAVYFCAKDGYLSAARGYGMDVWGQGIPVTVSP
VL: SYVLTQPPSVSVAPGQTATITCGGNNIGGKSVHWFQQKPGQAPLLIISDDNDRPSGIPERVSGSNSGNTATLTISRVEAGDEADYYCQVWDTTSDQLVFGGGTMLTVL
As to B3, the binding result in assay [1] is recorded as “binds”.

B4: Myc-tagged scFv_(H006) (scFv, V domains shown)
VH: QMRLVESGGGVVRPGGSLRLSCAGSGFRFTGYGIHWVRQAPGKGLEWLAYISNDGSKKYHTDSVKGRFTVSRDNAKNTAYLQMNSLRVEETAVYFCAKDGYLSAARGYGMDVWGQGIPVTVSP
VL: SYVLTQPPSVSVAPGQTATITCGGNNIGGKSVHWFQQKPGQAPLLIISDDNDRPSGIPERVSGSNSGNTATLTISRVEAGDEADYYCQVWDTTSDQLVFGGGTMLTVL
For the molecule B4, the binding result in assay [1] is “binds”.

B5: 3× HA-tagged FabHBC (Fab, V domains shown)
VH: ELQLVESGGGWVQPGGSQRLSCAASGRIFRSFYMSWVRQAPGKGLEWVATINQDGSEKLYVDSVKGRFTISRDNAKNSLFLQMNNLRVEDTAVYYCAAWSGNSGGMDVWGQGTTVSVSS
VL: SYELTQPPSVSVSPGQTVSIPCSGDKLGNKNVCWFQHKPGQSPVLVIYEVKYRPSGIPERFSGSNSGNTATLTISGTQAMDEAAYFCQTWDSTTVVFGGGTRLTVL
notes: also called NAbHBC; parental antibody of VIR-3434; source: FreeStyle 293F, co-transfected heavy and light chain, purified from the supernatant (Ni-NTA, SP HP); not shown: His tag (from the Ni-NTA purification); 3× HA, C-terminal, kept
As for B5, the binding result in assay [2] is on record as “binds”.

These data come from publication PMC12170907 (Cell Discovery, 2025).
